The text below walks through data of patent publication US20170129954A1 (PROTHENA BIOSCIENCES, published 2017).

Test [1] deals with T1, human MCAM Y318A mutant (shotgun mutagenesis library, on BHK cells) (human, UniProt P43121 24-646).
T1 chain: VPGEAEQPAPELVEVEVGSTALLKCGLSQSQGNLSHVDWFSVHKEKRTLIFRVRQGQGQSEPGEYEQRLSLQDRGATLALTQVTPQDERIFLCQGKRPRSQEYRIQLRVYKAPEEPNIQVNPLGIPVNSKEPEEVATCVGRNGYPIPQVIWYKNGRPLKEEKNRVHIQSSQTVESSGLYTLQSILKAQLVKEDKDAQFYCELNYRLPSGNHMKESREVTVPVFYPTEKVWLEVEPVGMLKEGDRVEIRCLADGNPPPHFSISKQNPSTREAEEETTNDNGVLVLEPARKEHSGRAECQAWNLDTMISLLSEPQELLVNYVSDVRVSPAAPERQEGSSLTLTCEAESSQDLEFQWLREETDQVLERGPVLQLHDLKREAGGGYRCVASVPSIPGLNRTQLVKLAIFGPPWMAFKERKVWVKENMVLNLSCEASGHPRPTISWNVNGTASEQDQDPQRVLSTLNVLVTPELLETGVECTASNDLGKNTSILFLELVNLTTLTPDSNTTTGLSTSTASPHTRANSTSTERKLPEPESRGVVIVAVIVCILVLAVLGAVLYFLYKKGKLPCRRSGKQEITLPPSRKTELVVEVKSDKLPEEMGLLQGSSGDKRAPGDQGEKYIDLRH
The test can be described thus: shotgun mutagenesis library, immunofluorescence on BHK cells, 0.5 µg/mL antibody. On the procedure:
(§1) Secondary antibodies from Jackson ImmunoResearch were used at 1:400 for MAb and sera detection.
(§2) The mutation library was assayed for surface expression (mouse sera binding) and monoclonal antibody binding, in triplicate. Each raw data point was background-subtracted and normalized to the wild type MCAM reactivity values. The mean monoclonal antibody binding value for each clone is plotted as a function of its mean surface expression value (FIG. 1, gray diamonds). Thresholds of <30% monoclonal antibody reactivity and >50% mouse sera binding were applied to identify clones (FIG. 1, black diamonds) that were negative for monoclonal antibody binding but positive for surface expression.

Test [2] deals with T2, human MCAM V340A mutant (shotgun mutagenesis library, on BHK cells) (human, UniProt P43121 24-646).
T2 chain: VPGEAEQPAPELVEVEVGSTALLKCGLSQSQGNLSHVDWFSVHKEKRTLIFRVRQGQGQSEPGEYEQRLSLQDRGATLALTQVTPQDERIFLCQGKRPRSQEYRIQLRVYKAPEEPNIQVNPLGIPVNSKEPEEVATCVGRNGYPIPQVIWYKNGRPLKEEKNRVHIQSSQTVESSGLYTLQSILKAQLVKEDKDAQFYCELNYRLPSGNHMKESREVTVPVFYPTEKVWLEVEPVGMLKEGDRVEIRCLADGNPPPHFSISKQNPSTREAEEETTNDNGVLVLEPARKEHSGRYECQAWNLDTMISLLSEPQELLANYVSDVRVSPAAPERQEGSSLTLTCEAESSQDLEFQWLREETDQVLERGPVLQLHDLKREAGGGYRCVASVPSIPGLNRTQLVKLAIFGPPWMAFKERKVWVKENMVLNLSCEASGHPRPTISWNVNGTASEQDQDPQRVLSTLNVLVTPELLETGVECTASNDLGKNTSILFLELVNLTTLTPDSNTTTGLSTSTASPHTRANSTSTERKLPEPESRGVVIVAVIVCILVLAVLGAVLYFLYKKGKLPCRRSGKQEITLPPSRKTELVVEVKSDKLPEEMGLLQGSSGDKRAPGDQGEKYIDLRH
The test is described as above. As for the experimental part: as §1, §2

For test [3], the target named is T3, human MCAM, full length, expressed on transfected cells (human, UniProt P43121 24-646).
T3 construct: also called CD146; MUC18
T3 chain: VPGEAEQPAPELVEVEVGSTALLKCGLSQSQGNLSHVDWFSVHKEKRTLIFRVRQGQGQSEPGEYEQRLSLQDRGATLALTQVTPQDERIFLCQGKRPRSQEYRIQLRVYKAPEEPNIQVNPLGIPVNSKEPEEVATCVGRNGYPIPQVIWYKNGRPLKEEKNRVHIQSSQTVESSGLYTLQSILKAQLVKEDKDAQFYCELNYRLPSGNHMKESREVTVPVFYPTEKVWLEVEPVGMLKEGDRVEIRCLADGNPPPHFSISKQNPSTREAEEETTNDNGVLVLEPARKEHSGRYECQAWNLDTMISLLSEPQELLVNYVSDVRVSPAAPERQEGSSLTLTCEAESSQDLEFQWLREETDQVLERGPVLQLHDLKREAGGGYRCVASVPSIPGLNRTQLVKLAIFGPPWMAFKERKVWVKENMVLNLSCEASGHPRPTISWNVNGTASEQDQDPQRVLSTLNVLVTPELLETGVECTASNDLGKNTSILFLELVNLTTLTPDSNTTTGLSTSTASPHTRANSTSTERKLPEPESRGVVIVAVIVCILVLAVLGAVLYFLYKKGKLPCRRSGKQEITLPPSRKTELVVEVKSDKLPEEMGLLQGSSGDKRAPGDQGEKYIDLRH
Description: flow cytometry, blocking of recombinant human laminin 411 (20 ug/ml) binding to CHO cells expressing human MCAM. As for the experimental part:
The 87 independent mouse fusion clones and 26 independent rat fusion clones described in Example 1 above as being capable of (i) binding to human MCAM, and (ii) blocking the interaction between human MCAM and the α-4 chain of laminin were further characterized as follows. First, IC50 quantitation for the ability of the monoclonal antibody to block the binding of human MCAM to the α-4 chain of laminin was determined as follows. CHO cells expressing human MCAM were incubated with an anti-human MCAM antibody (at various concentrations) for 30 minutes at 4 degrees Celsius. […] Unbound laminin was then washed away, and the laminin bound to the surface of the cells was detected with fluorescently labeled anti-laminin antibodies. After washing, the amount of laminin bound to the surface was detected by flow cytometry, and IC50s were calculated based on the mean fluorescent intensity.
Amino acid and nucleic acid sequences of the heavy and light chains of these antibodies, and their hypervariable regions, are provided in SEQ ID NOs:29-92. […] As such, each of these specific monoclonal antibodies was very capable of binding to human MCAM and inhibiting the interaction of cell-expressed human MCAM with its α-4 laminin binding ligand.
(In general: In flow cytometry, cells or beads pass a laser one at a time.)

B1: mouse anti-human MCAM monoclonal antibody clone 1749.1.3 (antibody, V domains shown)
VH: DVKLVESGGDLVKPGGSLKLSCAASGFTFSSYIMSWVRQTPEKRLEWVATISSGGSSTYYPDSVKGRFTISRDNAKNTLYLQMSSLKSEDTAMYYCTRDDDYDVKVFAYWGQGTLVTVSA
VL: DIVMSQSPSSLAVSAGEKVTMNCKSSRSLLNSRIRKNYLAWYQQKPGQSPKLLIYWASTRESGVPDRFTGSGSGTDFTLTISSVQAEDLAVYYCKQSYNLLTFGAGTKLELK
notes: Mouse hybridoma monoclonal antibody; also called m1749
On to B1, for which the binding result in test [1] and in test [2] was “no binding (tested: <30% WT)” each time. Besides, in test [3], the IC50 (usually the midpoint of a concentration-inhibition curve) is 0.545 µg/mL.
